Test results as given in patent US20250243278A1.

Key:
[1] = molecular target: human B7H3 on A498 cells (human) (UniProt Q5ZPR3); test: flow cytometry, whole cell binding to B7H3+ A498 cells, MFI
[2] = molecular target: human B7H3 on A498 cells (human) (UniProt Q5ZPR3); test: as above; remark: listed apart in the source
[3] = molecular target: human B7H3 on A498 cells (human) (UniProt Q5ZPR3); test: flow cytometry, whole cell binding to B7H3+ A498 cells, MFI (FITC)
[4] = molecular target: recombinant human B7H3 extra cellular domain (ECD) protein (human) (UniProt Q5ZPR3); test: Octet binding assay
recombinant human B7H3 extra cellular domain (ECD) protein (human), sequence (Q5ZPR3 29-461): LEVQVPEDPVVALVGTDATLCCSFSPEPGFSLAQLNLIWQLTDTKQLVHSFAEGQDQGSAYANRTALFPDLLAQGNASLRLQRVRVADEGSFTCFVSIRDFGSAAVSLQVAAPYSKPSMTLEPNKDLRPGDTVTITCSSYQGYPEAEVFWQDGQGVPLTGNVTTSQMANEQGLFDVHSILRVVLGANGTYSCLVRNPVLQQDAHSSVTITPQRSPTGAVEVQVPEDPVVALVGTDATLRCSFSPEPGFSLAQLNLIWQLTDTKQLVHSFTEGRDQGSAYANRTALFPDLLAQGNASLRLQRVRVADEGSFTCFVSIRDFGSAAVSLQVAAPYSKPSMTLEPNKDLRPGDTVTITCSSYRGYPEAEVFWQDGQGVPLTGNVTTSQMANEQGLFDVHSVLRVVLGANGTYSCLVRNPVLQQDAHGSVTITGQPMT

human B7H3 on A498 cells (human), sequence (Q5ZPR3 29-534 limits assumed): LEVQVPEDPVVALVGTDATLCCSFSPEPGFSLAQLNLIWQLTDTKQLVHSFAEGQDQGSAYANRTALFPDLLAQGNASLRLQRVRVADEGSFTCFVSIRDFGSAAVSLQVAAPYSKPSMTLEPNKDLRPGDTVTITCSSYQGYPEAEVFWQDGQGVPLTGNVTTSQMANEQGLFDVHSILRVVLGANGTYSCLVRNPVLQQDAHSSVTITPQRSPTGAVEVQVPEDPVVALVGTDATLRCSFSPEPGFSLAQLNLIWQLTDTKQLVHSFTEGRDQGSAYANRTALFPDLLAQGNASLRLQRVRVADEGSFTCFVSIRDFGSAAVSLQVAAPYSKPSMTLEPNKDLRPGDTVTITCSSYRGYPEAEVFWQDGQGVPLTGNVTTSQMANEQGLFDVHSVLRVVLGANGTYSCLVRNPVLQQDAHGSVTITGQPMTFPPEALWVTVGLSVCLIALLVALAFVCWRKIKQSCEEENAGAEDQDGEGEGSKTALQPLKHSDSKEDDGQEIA

## Reference Ab 1 (an enoblituzumab analog) (antibody)
[1]
  EC50: 2.18 nM
[2]
  EC50: 7.94 nM
[3]
  EC50: 0.697 nM
[4]
  Kd: 0.739 nM
  koff: 0.000199 s⁻¹
  kon: 269000 M⁻¹ s⁻¹
